# Source: patent publication US9845340B2, “Peptides that specifically bind HGF receptor (cMet) and uses thereof” (Dyax Corp., priority 2003, dated 2017)
# What was measured:
# cMet-Fc fusion protein = cMet-Fc fusion protein (Homo sapiens, UniProt P08581); experiment: Protein phage ELISA: peptide-displaying phage binding to soluble cMet-Fc versus TRAIL-Fc; settings: phage isolate; cMet-Fc vs. TRAIL-Fc
# Method in brief: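 Phage displaying selected peptides were incubated 2 h at room temperature on wells coated with 0.5 μg/mL cMet-Fc, with TRAIL-Fc coating as the unrelated-Fc specificity control.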
# [1] = target: T1, 3T3 cells that over-express human cMet (Homo sapiens, UniProt P08581); experiment: Whole cell ELISA of peptide-displaying phage; format: cell-based; settings: phage isolate; 3T3 cells expressing human cMet vs. non-expressing 3T3 cells
# T1 construct: expressed in transfected cells; host or cells: 3T3 cells
# T1 sequence (P08581 25-1390): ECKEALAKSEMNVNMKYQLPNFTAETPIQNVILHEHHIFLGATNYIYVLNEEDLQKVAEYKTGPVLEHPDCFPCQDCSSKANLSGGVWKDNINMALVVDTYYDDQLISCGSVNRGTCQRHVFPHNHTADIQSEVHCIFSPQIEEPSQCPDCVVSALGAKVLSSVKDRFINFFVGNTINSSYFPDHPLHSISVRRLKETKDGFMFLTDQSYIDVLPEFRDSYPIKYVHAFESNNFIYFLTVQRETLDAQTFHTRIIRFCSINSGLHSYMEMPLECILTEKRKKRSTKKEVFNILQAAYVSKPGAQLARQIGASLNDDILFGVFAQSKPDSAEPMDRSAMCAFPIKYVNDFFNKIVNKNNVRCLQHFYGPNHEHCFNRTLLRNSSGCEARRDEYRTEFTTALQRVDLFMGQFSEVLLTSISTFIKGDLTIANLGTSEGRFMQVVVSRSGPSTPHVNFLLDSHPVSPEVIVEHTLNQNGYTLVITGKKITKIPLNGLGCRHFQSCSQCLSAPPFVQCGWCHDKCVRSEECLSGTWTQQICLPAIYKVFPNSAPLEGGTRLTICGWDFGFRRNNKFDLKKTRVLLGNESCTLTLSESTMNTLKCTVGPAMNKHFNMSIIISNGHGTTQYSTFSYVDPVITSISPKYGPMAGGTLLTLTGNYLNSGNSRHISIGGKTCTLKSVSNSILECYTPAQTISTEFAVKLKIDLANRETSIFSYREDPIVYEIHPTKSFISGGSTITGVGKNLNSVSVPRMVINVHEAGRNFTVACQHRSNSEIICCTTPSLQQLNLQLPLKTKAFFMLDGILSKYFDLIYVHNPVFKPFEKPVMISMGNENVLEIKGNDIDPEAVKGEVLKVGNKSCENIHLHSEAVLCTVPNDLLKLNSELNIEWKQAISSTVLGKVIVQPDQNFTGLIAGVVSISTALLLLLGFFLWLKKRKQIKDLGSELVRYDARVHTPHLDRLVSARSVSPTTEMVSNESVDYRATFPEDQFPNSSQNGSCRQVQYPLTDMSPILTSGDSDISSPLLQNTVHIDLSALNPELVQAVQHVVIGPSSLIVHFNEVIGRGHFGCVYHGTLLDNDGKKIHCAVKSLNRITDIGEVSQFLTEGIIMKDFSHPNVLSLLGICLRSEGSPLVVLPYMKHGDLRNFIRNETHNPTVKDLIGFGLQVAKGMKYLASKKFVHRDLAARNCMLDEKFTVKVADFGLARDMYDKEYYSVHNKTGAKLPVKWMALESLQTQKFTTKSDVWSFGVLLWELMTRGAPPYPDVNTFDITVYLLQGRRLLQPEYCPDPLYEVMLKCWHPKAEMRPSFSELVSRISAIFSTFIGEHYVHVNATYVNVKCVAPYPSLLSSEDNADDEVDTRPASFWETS
# Method in brief: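 Phage displaying peptides, pre-blocked 1 h at 37 °C, incubated 1 h at RT on glutaraldehyde-fixed (0.1%, 12 min, 37 °C) cMet-overexpressing 3T3 cells (10^5 per well). Binding read out by HRP anti-M13 antibody after PBST washing.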
# cMet-Fc fusion protein, sequence (P08581 25-307 limits assumed): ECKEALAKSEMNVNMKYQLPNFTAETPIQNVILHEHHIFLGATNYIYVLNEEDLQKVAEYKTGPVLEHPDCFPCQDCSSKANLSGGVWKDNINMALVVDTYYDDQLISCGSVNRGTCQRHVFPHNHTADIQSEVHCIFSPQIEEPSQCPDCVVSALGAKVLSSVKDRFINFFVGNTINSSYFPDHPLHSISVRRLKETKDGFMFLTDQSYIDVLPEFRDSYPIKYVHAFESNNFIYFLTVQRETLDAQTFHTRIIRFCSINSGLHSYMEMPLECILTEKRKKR
# cMet-Fc fusion protein, sequence (P08581 with tags, fused parts or gaps limits assumed): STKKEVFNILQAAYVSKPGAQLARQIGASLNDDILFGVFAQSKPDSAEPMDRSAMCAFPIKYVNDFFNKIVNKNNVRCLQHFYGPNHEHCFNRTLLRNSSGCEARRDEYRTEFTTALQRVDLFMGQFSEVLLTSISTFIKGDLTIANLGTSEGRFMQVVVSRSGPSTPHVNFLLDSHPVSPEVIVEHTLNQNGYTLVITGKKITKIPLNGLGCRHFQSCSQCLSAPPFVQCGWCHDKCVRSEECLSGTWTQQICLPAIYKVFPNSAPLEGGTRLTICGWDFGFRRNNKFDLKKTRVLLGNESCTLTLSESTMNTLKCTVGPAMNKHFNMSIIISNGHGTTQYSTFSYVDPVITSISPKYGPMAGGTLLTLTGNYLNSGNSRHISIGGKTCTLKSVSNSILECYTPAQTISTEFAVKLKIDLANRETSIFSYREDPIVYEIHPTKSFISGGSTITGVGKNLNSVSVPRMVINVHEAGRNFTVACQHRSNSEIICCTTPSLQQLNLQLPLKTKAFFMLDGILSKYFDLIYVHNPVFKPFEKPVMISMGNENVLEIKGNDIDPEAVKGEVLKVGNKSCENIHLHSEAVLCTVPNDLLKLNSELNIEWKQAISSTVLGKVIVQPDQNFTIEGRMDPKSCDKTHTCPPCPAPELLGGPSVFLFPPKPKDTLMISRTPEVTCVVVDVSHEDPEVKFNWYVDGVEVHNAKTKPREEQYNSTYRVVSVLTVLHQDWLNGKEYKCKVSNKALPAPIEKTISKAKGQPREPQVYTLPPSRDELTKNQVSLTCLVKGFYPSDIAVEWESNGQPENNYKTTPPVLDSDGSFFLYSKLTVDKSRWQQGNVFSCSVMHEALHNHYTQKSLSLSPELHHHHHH
Protein ELISA (cMet-Fc fusion protein),WC ELISA [1],Compound
3.3 fold over background,1.23 fold over background,AQWNQWDEFMWFLNPPPIGLMW (Synthetically generated cMet-binding peptide sequence) [SEQ ID NO: 480]
5.3 fold over background,1.27 fold over background,AGETTCLGWPTFVCVDYGT (Synthetically generated cMet-binding peptide sequence) [SEQ ID NO: 063]
3.9 fold over background,1.23 fold over background,AQQWMFQIHQSMAWPYEWIDSY (Synthetically generated cMet-binding peptide sequence) [SEQ ID NO: 494]
3.1 fold over background,1.20 fold over background,AQSDHDHAHWGVKHWPFRRYQ (Synthetically generated cMet-binding peptide sequence) [SEQ ID NO: 482]
35.3 fold over background,1.37 fold over background,CC[C@H](C)[C@H](NC(=O)[C@@H]1CCCN1C(=O)[C@H](Cc1ccc(O)cc1)NC(=O)[C@H](CO)NC(=O)[C@H](CCSC)NC(=O)[C@H](C)NC(=O)[C@H](CC(C)C)NC(=O)[C@H](CCCCN)NC(=O)[C@H](Cc1ccc(O)cc1)NC(=O)[C@H](Cc1c[nH]cn1)NC(=O)[C@H](C)NC(=O)[C@H](CCC(=O)O)NC(=O)[C@@H]1CCCN1C(=O)[C@H](CCCNC(=N)N)NC(=O)[C@H](CCC(N)=O)NC(=O)[C@H](C)NC(C)=O)C(=O)N[C@H](C(=O)N1CCC[C@H]1C(=O)N[C@@H](CCCNC(=N)N)C(=O)N[C@H](C(=O)N[C@@H](CCCCN)C(=O)N[C@H](C(=O)NCC(=O)NCC(=O)NCC(=O)N[C@@H](CCCCNC(=O)c1ccc2c(c1)C(=O)OC21c2ccc(O)cc2Oc2cc(O)ccc21)C(N)=O)[C@@H](C)O)[C@@H](C)O)[C@@H](C)CC [SEQ ID NO: 452]
6.3 fold over background,1.33 fold over background,CC[C@H](C)[C@H](NC(=O)[C@H](CC(=O)O)NC(=O)CNC(=O)[C@H](C)NC(C)=O)C(=O)N[C@H](C(=O)N[C@H]1CSSC[C@@H](C(=O)N[C@@H](Cc2c[nH]c3ccccc23)C(=O)N[C@@H](CO)C(=O)N[C@@H](Cc2c[nH]c3ccccc23)C(=O)NCC(=O)N[C@H](C(=O)NCC(=O)NCC(=O)NCC(=O)N[C@@H](CCCCNC(=O)c2ccc3c(c2)C(=O)OC32c3ccc(O)cc3Oc3cc(O)ccc32)C(N)=O)[C@@H](C)O)NC(=O)[C@H](CCC(=O)O)NC(=O)[C@H](Cc2ccccc2)NC(=O)[C@H](Cc2ccc(O)cc2)NC(=O)[C@@H]2CCCN2C(=O)[C@H](Cc2c[nH]cn2)NC(=O)CNC(=O)[C@H]([C@@H](C)O)NC1=O)C(C)C [SEQ ID NO: 068]
3.3 fold over background,1.30 fold over background,AGNLPCHWNMSVCDHQGT (Synthetically generated cMet-binding peptide sequence) [SEQ ID NO: 034]
4.7 fold over background,1.30 fold over background,AGDWHCQGPPAFMCWMIGT (Synthetically generated cMet-binding peptide sequence) [SEQ ID NO: 065]
4.1 fold over background,1.33 fold over background,AGWWSCQWELNVCIWQGT (Synthetically generated cMet-binding peptide sequence) [SEQ ID NO: 016]
3.2 fold over background,1.27 fold over background,AGPYSCHSESHDCKLMGT (Synthetically generated cMet-binding peptide sequence) [SEQ ID NO: 032]
9.1 fold over background,1.40 fold over background,AGYFHCSGSPWFQCDYYGT (Synthetically generated cMet-binding peptide sequence) [SEQ ID NO: 081]
14.5 fold over background,1.30 fold over background,AGYPECKDNYHWCEWKGT (Synthetically generated cMet-binding peptide sequence) [SEQ ID NO: 024]
5.6 fold over background,1.27 fold over background,AQFPLEFDVPNFSYHWLVSFNP (Synthetically generated cMet-binding peptide sequence) [SEQ ID NO: 460]
8.4 fold over background,1.27 fold over background,AGDFICQGPPSFVCTNIGT (Synthetically generated cMet-binding peptide sequence) [SEQ ID NO: 097]
3.2 fold over background,1.37 fold over background,AGWTWCDLSMMSCIFHGT (Synthetically generated cMet-binding peptide sequence) [SEQ ID NO: 025]
4.2 fold over background,1.37 fold over background,AGGNWCSFYEELCEWLGT (Synthetically generated cMet-binding peptide sequence) [SEQ ID NO: 043]
3.6 fold over background,1.43 fold over background,AGTIRCNLAMMVCMFEGT (Synthetically generated cMet-binding peptide sequence) [SEQ ID NO: 028]
3.8 fold over background,1.27 fold over background,GSLIICWWSWCDKQAP (Synthetically generated cMet-binding peptide sequence) [SEQ ID NO: 009]
4.3 fold over background,1.10 fold over background,CC[C@H](C)[C@H](NC(=O)CNC(=O)[C@H](CCC(N)=O)NC(=O)[C@@H](NC(=O)[C@H](CCC(N)=O)NC(=O)[C@H](C)NC(C)=O)[C@@H](C)CC)C(=O)N[C@@H](CCC(N)=O)C(=O)N[C@@H](CCCCN)C(=O)N[C@H](C(=O)N[C@@H](CCC(=O)O)C(=O)N[C@@H](CCC(N)=O)C(=O)NCC(=O)N[C@@H](CCC(=O)O)C(=O)N[C@@H](Cc1ccccc1)C(=O)N[C@@H](Cc1ccc(O)cc1)C(=O)N[C@@H](Cc1c[nH]c2ccccc12)C(=O)N[C@@H](Cc1ccccc1)C(=O)N[C@@H](CC(N)=O)C(=O)N[C@@H](Cc1c[nH]c2ccccc12)C(=O)N[C@@H](Cc1ccccc1)C(=O)N1CCC[C@H]1C(=O)N[C@@H](C)C(=O)NCC(=O)NCC(=O)NCC(=O)N[C@@H](CCCCNC(=O)c1ccc2c(c1)C(=O)OC21c2ccc(O)cc2Oc2cc(O)ccc21)C(N)=O)[C@@H](C)O [SEQ ID NO: 450]
3.8 fold over background,1.43 fold over background,AGPLFCFEWPSLCHWGGT (Synthetically generated cMet-binding peptide sequence) [SEQ ID NO: 033]
3.3 fold over background,1.37 fold over background,AQDNTADQMFNGFHVLAMYMV (Synthetically generated cMet-binding peptide sequence) [SEQ ID NO: 481]
15.9 fold over background,1.47 fold over background,CC[C@H](C)[C@H](NC(=O)[C@H](CO)NC(=O)CNC(=O)[C@H](C)NC(C)=O)C(=O)N[C@@H](CCC(N)=O)C(=O)N[C@H]1CSSC[C@@H](C(=O)N[C@@H](C)C(=O)N[C@@H](CCSC)C(=O)N[C@@H](Cc2ccc(O)cc2)C(=O)NCC(=O)N[C@H](C(=O)NCC(=O)NCC(=O)NCC(=O)N[C@@H](CCCCNC(=O)c2ccc3c(c2)C(=O)OC32c3ccc(O)cc3Oc3cc(O)ccc32)C(N)=O)[C@@H](C)O)NC(=O)[C@H](CO)NC(=O)[C@H](Cc2ccccc2)NC(=O)[C@H](Cc2c[nH]c3ccccc23)NC(=O)[C@@H]2CCCN2C(=O)[C@@H]2CCCN2C(=O)CNC(=O)[C@H](CCCCN)NC1=O [SEQ ID NO: 048]
3.0 fold over background,1.63 fold over background,AQFMYEKEHYVMSISLPGLWFY (Synthetically generated cMet-binding peptide sequence) [SEQ ID NO: 486]
8.2 fold over background,1.33 fold over background,CSCC[C@H](NC(=O)[C@H](CCCNC(=N)N)NC(=O)[C@H](Cc1c[nH]c2ccccc12)NC(=O)[C@H](CO)NC(=O)[C@H](CO)NC(=O)[C@H](CC(C)C)NC(=O)[C@H](Cc1ccccc1)NC(=O)[C@H](CC(=O)O)NC(=O)[C@H](CC(C)C)NC(=O)[C@H](Cc1ccc(O)cc1)NC(=O)[C@H](Cc1c[nH]c2ccccc12)NC(=O)[C@H](Cc1ccc(O)cc1)NC(=O)[C@@H]1CCCN1C(=O)[C@H](CCC(=O)O)NC(=O)[C@H](CCC(=O)O)NC(=O)[C@@H](NC(=O)[C@H](CCC(=O)O)NC(=O)[C@H](CCCNC(=N)N)NC(=O)[C@H](CCC(N)=O)NC(=O)[C@H](C)NC(C)=O)C(C)C)C(=O)N[C@@H](Cc1c[nH]cn1)C(=O)N[C@@H](CCC(=O)O)C(=O)NCC(=O)NCC(=O)NCC(=O)N[C@@H](CCCCNC(=O)c1ccc2c(c1)C(=O)OC21c2ccc(O)cc2Oc2cc(O)ccc21)C(N)=O [SEQ ID NO: 451]

Compound,Protein ELISA (cMet-Fc fusion protein),WC ELISA [1]
CC(=O)N[C@@H](C)C(=O)NCC(=O)N[C@@H](Cc1ccc(O)cc1)C(=O)N[C@H](C(=O)N[C@@H](CO)C(=O)N[C@H]1CSSC[C@@H](C(=O)N[C@H](C(=O)N2CCC[C@H]2C(=O)N[C@@H](Cc2ccc(O)cc2)C(=O)NCC(=O)N[C@H](C(=O)NCC(=O)NCC(=O)NCC(=O)N[C@@H](CCCCNC(=O)c2ccc3c(c2)C(=O)OC32c3ccc(O)cc3Oc3cc(O)ccc32)C(N)=O)[C@@H](C)O)[C@@H](C)O)NC(=O)[C@H](CCC(=O)O)NC(=O)[C@H](Cc2ccccc2)NC(=O)[C@H](CO)NC(=O)[C@@H]2CCCN2C(=O)[C@@H]2CCCN2C(=O)CNC(=O)[C@H](C(C)C)NC1=O)[C@@H](C)O [SEQ ID NO: 059],21.2 fold over background,1.43 fold over background
